According to patent US20260325667 (published 2026):

T1: Human Tissue Factor (human)
T1 chain: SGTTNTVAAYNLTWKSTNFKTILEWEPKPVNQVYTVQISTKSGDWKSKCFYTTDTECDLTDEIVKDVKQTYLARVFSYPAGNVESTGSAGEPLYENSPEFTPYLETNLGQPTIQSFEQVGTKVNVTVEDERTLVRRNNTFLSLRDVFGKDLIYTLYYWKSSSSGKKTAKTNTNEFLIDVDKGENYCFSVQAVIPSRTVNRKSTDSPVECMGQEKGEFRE

T2: Cynomolgus Tissue Factor (cynomolgus)
T2 chain: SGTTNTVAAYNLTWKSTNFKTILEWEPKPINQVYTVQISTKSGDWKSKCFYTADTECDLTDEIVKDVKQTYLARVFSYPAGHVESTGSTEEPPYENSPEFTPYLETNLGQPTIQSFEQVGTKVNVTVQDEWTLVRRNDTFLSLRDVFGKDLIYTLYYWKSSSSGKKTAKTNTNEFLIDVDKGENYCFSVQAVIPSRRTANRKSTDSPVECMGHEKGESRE

T3: Mouse Tissue Factor (mouse)
T3 chain: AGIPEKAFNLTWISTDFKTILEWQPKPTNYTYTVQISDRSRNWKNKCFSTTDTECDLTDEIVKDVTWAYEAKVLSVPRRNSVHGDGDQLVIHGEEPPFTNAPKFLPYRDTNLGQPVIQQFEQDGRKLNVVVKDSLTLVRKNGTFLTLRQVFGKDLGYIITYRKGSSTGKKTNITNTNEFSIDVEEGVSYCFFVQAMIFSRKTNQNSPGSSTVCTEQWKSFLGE


Tests used:
Human Tissue Factor [1] = target: T1, Human Tissue Factor; assay: BLI, batch 2
Cynomolgus Tissue Factor [2] = target: T2, Cynomolgus Tissue Factor; assay: BLI, batch 1
Human Tissue Factor [3] = target: T1, Human Tissue Factor; assay: BLI, batch 1
Mouse Tissue Factor [4] = target: T3, Mouse Tissue Factor; assay: BLI, batch 1
Cynomolgus Tissue Factor [5] = target: T2, Cynomolgus Tissue Factor; assay: BLI, batch 2
Mouse Tissue Factor [6] = target: T3, Mouse Tissue Factor; assay: BLI, batch 2
Cynomolgus Tissue Factor [7] = target: T2, Cynomolgus Tissue Factor; assay: BLI
Human Tissue Factor [8] = target: T1, Human Tissue Factor; assay: BLI
Mouse Tissue Factor [9] = target: T3, Mouse Tissue Factor; assay: BLI

| Binder | Kd (Human Tissue Factor [1]) [µM] | Kd (Cynomolgus Tissue Factor [2]) [µM] | Kd (Human Tissue Factor [3]) [µM] | Kd (Mouse Tissue Factor [4]) [µM] | Kd (Cynomolgus Tissue Factor [5]) [µM] | Kd (Mouse Tissue Factor [6]) [µM] | Kd (Cynomolgus Tissue Factor [7]) [µM] | Kd (Human Tissue Factor [8]) [µM] | Kd (Mouse Tissue Factor [9]) [µM] |
| --- | --- | --- | --- | --- | --- | --- | --- | --- | --- |
| EXMA-006 (antibody, unconjugated TF antibody; representative batches 1 and 2) chain 1: QVQLVQSGAEVKKPGASVKVSCKASGYTFDVYGISWVRQAPGQGLEWMGWIAPYSGNTNYAQKLQGRVTMTTDTSTSTAYMELRSLRSDDTAVYYCARDAGTYSPFGYGMDVWGQGTTVTVSS chain 2: DIQMTQSPSTLSASVGDRVTITCQASQSINNWLAWYQQKPGKAPKLLIYKAYNLESGVPSRFSGSGSGTEFTLTISSLQPDDFATYYCQLFQSLPPFTFGGGTKVEIK | 36 | 0.000673 | 0.00113 | 0.107 | 240 | 2000 | – | – | – |
| TF-ADC 6-8 (antibody, ADC, linker-payload conjugated at fGly' in CH1 and C-terminus, DAR about 8) chain 1: not shown chain 2: DIQMTQSPSTLSASVGDRVTITCQASQSINNWLAWYQQKPGKAPKLLIYKAYNLESGVPSRFSGSGSGTEFTLTISSLQPDDFATYYCQLFQSLPPFTFGGGTKVEIKRTVAAPSVFIFPPSDEQLKSGTASVVCLLNNFYPREAKVQWKVDNALQSGNSQESVTEQDSKDSTYSLSSTLTLSKADYEKHKVYACEVTHQGLSSPVTKSFNRGEC | – | – | – | – | – | – | 19 | 7.1 | 210 |
